Assay results from the Human Domainome abundance scans (Beltran et al. 2025).
± gives the uncertainty stated by the source.

B1: Myocardin-related transcription factor A, residues 341 to 383; numbered along this chain, Q969V6 (parent)
chain: GALPANLDDMKVAELKQELKLRSLPVSGTKTELIERLRAYQDQ

Variants of: B1
Assay: abundance fitness (aPCA) (normalised: wild type 0, dead -1); higher = more abundant; growth selection in yeast, the domain comes from the species named
Conditions: Homo sapiens

Variant	abundance fitness
GALPANLDDSKVAELKQELKLRSLPVSGTKTELIERLRAYQDQ [M10S]	-0.256 ± 0.09
GALPANLDDGKVAELKQELKLRSLPVSGTKTELIERLRAYQDQ [M10G]	-0.839 ± 0.071
GALPANLDDQKVAELKQELKLRSLPVSGTKTELIERLRAYQDQ [M10Q]	-0.434 ± 0.13
GALPANLDDCKVAELKQELKLRSLPVSGTKTELIERLRAYQDQ [M10C]	-0.441 ± 0.13
GALPANLDDIKVAELKQELKLRSLPVSGTKTELIERLRAYQDQ [M10I]	-0.302 ± 0.18
GALPANLDDVKVAELKQELKLRSLPVSGTKTELIERLRAYQDQ [M10V]	-0.872 ± 0.074
GALPANLDDEKVAELKQELKLRSLPVSGTKTELIERLRAYQDQ [M10E]	-0.979 ± 0.14
GALPANLDDTKVAELKQELKLRSLPVSGTKTELIERLRAYQDQ [M10T]	-0.568 ± 0.12
GALPANLDDKKVAELKQELKLRSLPVSGTKTELIERLRAYQDQ [M10K]	-0.151 ± 0.45
GALPANLDDRKVAELKQELKLRSLPVSGTKTELIERLRAYQDQ [M10R]	-0.537 ± 0.058
GALPANLDDNKVAELKQELKLRSLPVSGTKTELIERLRAYQDQ [M10N]	-0.425 ± 0.14
GALPANLDDDKVAELKQELKLRSLPVSGTKTELIERLRAYQDQ [M10D]	-0.894 ± 0.15
GALPANLDDWKVAELKQELKLRSLPVSGTKTELIERLRAYQDQ [M10W]	-0.41 ± 0.091
GALPANLDDYKVAELKQELKLRSLPVSGTKTELIERLRAYQDQ [M10Y]	-0.068 ± 0.45
GALPANLDDAKVAELKQELKLRSLPVSGTKTELIERLRAYQDQ [M10A]	-0.104 ± 0.082
GALPANLDDLKVAELKQELKLRSLPVSGTKTELIERLRAYQDQ [M10L]	-0.222 ± 0.1
GALPANLDDPKVAELKQELKLRSLPVSGTKTELIERLRAYQDQ [M10P]	-0.531 ± 0.13
GALPANLDDMKVADLKQELKLRSLPVSGTKTELIERLRAYQDQ [E14D]	-0.266 ± 0.15
GALPANLDDMKVASLKQELKLRSLPVSGTKTELIERLRAYQDQ [E14S]	-0.056 ± 0.072
GALPANLDDMKVAQLKQELKLRSLPVSGTKTELIERLRAYQDQ [E14Q]	-0.063 ± 0.095

Variant	abundance fitness
GALPANLDDMKVAVLKQELKLRSLPVSGTKTELIERLRAYQDQ [E14V]	-0.127 ± 0.1
GALPANLDDMKVARLKQELKLRSLPVSGTKTELIERLRAYQDQ [E14R]	-0.169 ± 0.083
GALPANLDDMKVACLKQELKLRSLPVSGTKTELIERLRAYQDQ [E14C]	-0.311 ± 0.14
GALPANLDDMKVAHLKQELKLRSLPVSGTKTELIERLRAYQDQ [E14H]	0.136 ± 0.12
GALPANLDDMKVAMLKQELKLRSLPVSGTKTELIERLRAYQDQ [E14M]	0.022 ± 0.13
GALPANLDDMKVAYLKQELKLRSLPVSGTKTELIERLRAYQDQ [E14Y]	-0.147 ± 0.089
GALPANLDDMKVAALKQELKLRSLPVSGTKTELIERLRAYQDQ [E14A]	-0.079 ± 0.065
GALPANLDDMKVAKLKQELKLRSLPVSGTKTELIERLRAYQDQ [E14K]	-0.215 ± 0.098
GALPANLDDMKVAGLKQELKLRSLPVSGTKTELIERLRAYQDQ [E14G]	-0.165 ± 0.064
GALPANLDDMKVALLKQELKLRSLPVSGTKTELIERLRAYQDQ [E14L]	-0.355 ± 0.087
GALPANLDDMKVAWLKQELKLRSLPVSGTKTELIERLRAYQDQ [E14W]	-0.314 ± 0.089
GALPANLDDMKVAFLKQELKLRSLPVSGTKTELIERLRAYQDQ [E14F]	-0.3 ± 0.2
GALPANLDDMKVAPLKQELKLRSLPVSGTKTELIERLRAYQDQ [E14P]	-0.656 ± 0.12
GALPANLDDMKVATLKQELKLRSLPVSGTKTELIERLRAYQDQ [E14T]	-0.134 ± 0.096
GALPANLDDMKLAELKQELKLRSLPVSGTKTELIERLRAYQDQ [V12L]	0.164 ± 0.11
GALPANLDDMKWAELKQELKLRSLPVSGTKTELIERLRAYQDQ [V12W]	-0.374 ± 0.099
GALPANLDDMKMAELKQELKLRSLPVSGTKTELIERLRAYQDQ [V12M]	0.199 ± 0.13
GALPANLDDMKIAELKQELKLRSLPVSGTKTELIERLRAYQDQ [V12I]	-0.177 ± 0.13
GALPANLDDMKRAELKQELKLRSLPVSGTKTELIERLRAYQDQ [V12R]	-0.177 ± 0.073
GALPANLDDMKYAELKQELKLRSLPVSGTKTELIERLRAYQDQ [V12Y]	-0.585 ± 0.3

Variant	abundance fitness
GALPANLDDMKGAELKQELKLRSLPVSGTKTELIERLRAYQDQ [V12G]	-0.218 ± 0.064
GALPANLDDMKCAELKQELKLRSLPVSGTKTELIERLRAYQDQ [V12C]	-0.212 ± 0.13
GALPANLDDMKNAELKQELKLRSLPVSGTKTELIERLRAYQDQ [V12N]	-0.647 ± 0.11
GALPANLDDMKEAELKQELKLRSLPVSGTKTELIERLRAYQDQ [V12E]	0.098 ± 0.081
GALPANLDDMKAAELKQELKLRSLPVSGTKTELIERLRAYQDQ [V12A]	-0.029 ± 0.13
GALPANLDDMKSAELKQELKLRSLPVSGTKTELIERLRAYQDQ [V12S]	-0.336 ± 0.1
GALPANLDDMKFAELKQELKLRSLPVSGTKTELIERLRAYQDQ [V12F]	-0.037 ± 0.11
GALPANLDDMKQAELKQELKLRSLPVSGTKTELIERLRAYQDQ [V12Q]	-0.552 ± 0.42
GALPANLDDMKDAELKQELKLRSLPVSGTKTELIERLRAYQDQ [V12D]	-0.363 ± 0.089
GALPANLDDMDVAELKQELKLRSLPVSGTKTELIERLRAYQDQ [K11D]	-0.045 ± 0.086
GALPANLDDMGVAELKQELKLRSLPVSGTKTELIERLRAYQDQ [K11G]	-0.054 ± 0.059
GALPANLDDMPVAELKQELKLRSLPVSGTKTELIERLRAYQDQ [K11P]	-0.166 ± 0.098
GALPANLDDMAVAELKQELKLRSLPVSGTKTELIERLRAYQDQ [K11A]	0.132 ± 0.1
GALPANLDDMFVAELKQELKLRSLPVSGTKTELIERLRAYQDQ [K11F]	-0.502 ± 0.072
GALPANLDDMSVAELKQELKLRSLPVSGTKTELIERLRAYQDQ [K11S]	-0.029 ± 0.093
GALPANLDDMYVAELKQELKLRSLPVSGTKTELIERLRAYQDQ [K11Y]	-0.799 ± 0.14
GALPANLDDMWVAELKQELKLRSLPVSGTKTELIERLRAYQDQ [K11W]	-0.635 ± 0.081
GALPANLDDMLVAELKQELKLRSLPVSGTKTELIERLRAYQDQ [K11L]	-0.197 ± 0.074
GALPANLDDMTVAELKQELKLRSLPVSGTKTELIERLRAYQDQ [K11T]	-0.161 ± 0.077
